# Source: the supplement of paper PMC9112550, “Optimization of the antimicrobial peptide Bac7 by deep mutational scanning” (BMC Biology, 2022)
# System: Escherichia coli TOP10
# Assay: shrunken log2 fold change of peptide-encoding DNA abundance (4.5 h post-induction vs induction); higher = less antimicrobial activity (less host growth inhibition)
# Conditions: time post-induction: 4.5 h; library: site-saturation at positions 5, 18, 19, 20
# 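Note: peptides expressed intracellularly from a pBAD plasmid library in pooled LB shake-flask culture, induced with 0.3% L-arabinose, DNA abundance read by NGS, three biological replicates, DESeq2 with apeglm shrinkage.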
row,Sequence,shrunken log2 fold change
1,RRIRQRPPRLPRPRPRPAKNPRP,-0.0935
2,RRIRVRPPRLPRPRPRPDFLPRP,-0.189
3,RRIRIRPPRLPRPRPRPIDQPRP,-0.341
4,RRIRVRPPRLPRPRPRPFETPRP,-0.0538
5,RRIRNRPPRLPRPRPRPDPHPRP,-0.263
6,RRIRQRPPRLPRPRPRPLMGPRP,-0.121
7,RRIRWRPPRLPRPRPRPYDNPRP,-0.263
8,RRIRSRPPRLPRPRPRPARVPRP,0.47
9,RRIRTRPPRLPRPRPRPWVNPRP,-0.208
10,RRIRPRPPRLPRPRPRPRNFPRP,0.192
11,RRIRYRPPRLPRPRPRPLRMPRP,0.0288
12,RRIRPRPPRLPRPRPRPGPDPRP,0.28
13,RRIRWRPPRLPRPRPRPKNKPRP,0.107
14,RRIRCRPPRLPRPRPRPEMPPRP,0.65
15,RRIRIRPPRLPRPRPRPTPKPRP,-0.0169
16,RRIRLRPPRLPRPRPRPGLEPRP,0.11
17,RRIRPRPPRLPRPRPRPWNDPRP,0.0243
18,RRIRHRPPRLPRPRPRPPAHPRP,0.0763
19,RRIRFRPPRLPRPRPRPKGFPRP,0.21
20,RRIRARPPRLPRPRPRPVLEPRP,0.488
21,RRIRFRPPRLPRPRPRPGINPRP,-0.288
22,RRIRKRPPRLPRPRPRPFTSPRP,0.093
23,RRIRWRPPRLPRPRPRPLQFPRP,0.0403
24,RRIRIRPPRLPRPRPRPNPDPRP,-0.659
25,RRIRYRPPRLPRPRPRPCLDPRP,-0.125

row,Sequence,shrunken log2 fold change
1,RRIRLRPPRLPRPRPRPRINPRP,-0.0907
2,RRIRLRPPRLPRPRPRPAWWPRP,0.173
3,RRIRCRPPRLPRPRPRPEHYPRP,-0.625
4,RRIRGRPPRLPRPRPRPTQFPRP,0.772
5,RRIRGRPPRLPRPRPRPFHIPRP,-0.14
6,RRIRERPPRLPRPRPRPCHEPRP,-0.0789
7,RRIRGRPPRLPRPRPRPEGLPRP,1.06
8,RRIRERPPRLPRPRPRPESCPRP,-0.0125
9,RRIRRRPPRLPRPRPRPIHFPRP,-0.174
10,RRIRGRPPRLPRPRPRPQHNPRP,-0.186
11,RRIRVRPPRLPRPRPRPGKPPRP,0.0464
12,RRIRFRPPRLPRPRPRPWCWPRP,0.155
13,RRIRNRPPRLPRPRPRPFWIPRP,0.0948
14,RRIRWRPPRLPRPRPRPVYPPRP,-0.104
15,RRIRCRPPRLPRPRPRPNIMPRP,-0.896
16,RRIRARPPRLPRPRPRPLCEPRP,0.879
17,RRIRIRPPRLPRPRPRPKEGPRP,0.00692
18,RRIRARPPRLPRPRPRPSQGPRP,-0.168
19,RRIRTRPPRLPRPRPRPENPPRP,0.261
20,RRIRYRPPRLPRPRPRPTCIPRP,-0.257
21,RRIRSRPPRLPRPRPRPEGLPRP,-0.0431
22,RRIRKRPPRLPRPRPRPCCGPRP,0.281
23,RRIRNRPPRLPRPRPRPNTSPRP,-0.0898
24,RRIRCRPPRLPRPRPRPSKEPRP,0.0893
25,RRIRSRPPRLPRPRPRPHGFPRP,-0.0309

row,Sequence,shrunken log2 fold change
1,RRIRTRPPRLPRPRPRPGWIPRP,-0.154
2,RRIRGRPPRLPRPRPRPTSRPRP,0.336
3,RRIRHRPPRLPRPRPRPNRVPRP,-0.672
4,RRIRGRPPRLPRPRPRPAGNPRP,0.693
5,RRIRCRPPRLPRPRPRPTDYPRP,1.93
6,RRIRNRPPRLPRPRPRPNTDPRP,-0.249
7,RRIRYRPPRLPRPRPRPVDSPRP,0.0413
8,RRIRIRPPRLPRPRPRPRFGPRP,0.174
9,RRIRHRPPRLPRPRPRPLVDPRP,-0.219
10,RRIRERPPRLPRPRPRPSVHPRP,-0.329
11,RRIRKRPPRLPRPRPRPHILPRP,0.0523
12,RRIRERPPRLPRPRPRPLKSPRP,-0.169
13,RRIRYRPPRLPRPRPRPVMAPRP,-0.335
14,RRIRWRPPRLPRPRPRPMDKPRP,-0.194
15,RRIRMRPPRLPRPRPRPLTKPRP,0.212
16,RRIRTRPPRLPRPRPRPRHPPRP,0.225
17,RRIRPRPPRLPRPRPRPAYHPRP,-0.129
18,RRIRQRPPRLPRPRPRPQPYPRP,-0.0274
19,RRIRWRPPRLPRPRPRPQCDPRP,0.462
20,RRIRRRPPRLPRPRPRPYCSPRP,-0.262
21,RRIRQRPPRLPRPRPRPPTVPRP,-0.225
22,RRIRYRPPRLPRPRPRPPFFPRP,-0.0804
23,RRIRWRPPRLPRPRPRPVCPPRP,0.142
24,RRIRVRPPRLPRPRPRPKLGPRP,0.173
25,RRIRNRPPRLPRPRPRPVCHPRP,-0.169

row,Sequence,shrunken log2 fold change
1,RRIRCRPPRLPRPRPRPTTYPRP,-0.781
2,RRIRKRPPRLPRPRPRPIVYPRP,-0.0564
3,RRIRDRPPRLPRPRPRPTLWPRP,2.36
4,RRIRVRPPRLPRPRPRPLPWPRP,0.196
5,RRIRFRPPRLPRPRPRPGMMPRP,-0.216
6,RRIRPRPPRLPRPRPRPWLHPRP,-0.173
7,RRIRMRPPRLPRPRPRPSWPPRP,0.144
8,RRIRFRPPRLPRPRPRPNAEPRP,0.67
9,RRIRMRPPRLPRPRPRPMMIPRP,-0.025
10,RRIRCRPPRLPRPRPRPMWVPRP,0.121
11,RRIRDRPPRLPRPRPRPNVWPRP,0.234
12,RRIRFRPPRLPRPRPRPFYAPRP,-0.542
13,RRIRLRPPRLPRPRPRPHSKPRP,-0.129
14,RRIRFRPPRLPRPRPRPNMHPRP,-0.377
15,RRIRRRPPRLPRPRPRPIDAPRP,0.227
16,RRIRQRPPRLPRPRPRPCEWPRP,0.000996
17,RRIRRRPPRLPRPRPRPWWYPRP,-0.303
18,RRIRERPPRLPRPRPRPTCCPRP,-0.0839
19,RRIRKRPPRLPRPRPRPFDVPRP,0.0305
20,RRIRERPPRLPRPRPRPQMTPRP,-0.312
21,RRIRLRPPRLPRPRPRPIAIPRP,0.12
22,RRIRERPPRLPRPRPRPPEHPRP,0.114
23,RRIRWRPPRLPRPRPRPANFPRP,0.106
24,RRIRLRPPRLPRPRPRPTKAPRP,0.0258
25,RRIRYRPPRLPRPRPRPRDPPRP,0.271

row,Sequence,shrunken log2 fold change
1,RRIRYRPPRLPRPRPRPSRFPRP,-0.074
2,RRIRCRPPRLPRPRPRPNPFPRP,-0.024
3,RRIRWRPPRLPRPRPRPGVPPRP,0.184
4,RRIRPRPPRLPRPRPRPADCPRP,0.273
5,RRIRKRPPRLPRPRPRPWMDPRP,0.0169
6,RRIRRRPPRLPRPRPRPLEGPRP,0.0703
7,RRIRPRPPRLPRPRPRPLYDPRP,2.73
8,RRIRFRPPRLPRPRPRPPITPRP,-0.389
9,RRIRHRPPRLPRPRPRPIFSPRP,-0.176
10,RRIRHRPPRLPRPRPRPQGQPRP,0.043
11,RRIRERPPRLPRPRPRPHACPRP,0.013
12,RRIRLRPPRLPRPRPRPTMTPRP,-0.256
13,RRIRMRPPRLPRPRPRPEFSPRP,1.51
14,RRIRPRPPRLPRPRPRPISEPRP,-0.303
15,RRIRERPPRLPRPRPRPMLHPRP,-0.542
16,RRIRPRPPRLPRPRPRPEIPPRP,0.0702
17,RRIRERPPRLPRPRPRPDHAPRP,-0.318
18,RRIRERPPRLPRPRPRPWVMPRP,-0.32
19,RRIRLRPPRLPRPRPRPHGEPRP,0.191
20,RRIRKRPPRLPRPRPRPMLMPRP,0.322
21,RRIRERPPRLPRPRPRPVDFPRP,-0.0586
22,RRIRARPPRLPRPRPRPKKPPRP,0.0922
23,RRIRCRPPRLPRPRPRPPWGPRP,0.122
24,RRIRLRPPRLPRPRPRPQMSPRP,-0.111
25,RRIRNRPPRLPRPRPRPPLSPRP,0.502
